Results taken from patent US20210388087A1 (Chugai, published 2021).
Changes are numbered by the printed parent chain. Blank lines part the entries; values can stand above or below the binder they belong to.

Molecular target: T1, Human CD137 ECD (human)
T1 construct: entry includes C-terminal His-tag and biotin acceptor peptide; also called human CD137 extracellular domain; 4-1BB
Experiment: Biacore SPR, vs parent H183/L072

T1 sequence (chain, as listed by the source limits assumed): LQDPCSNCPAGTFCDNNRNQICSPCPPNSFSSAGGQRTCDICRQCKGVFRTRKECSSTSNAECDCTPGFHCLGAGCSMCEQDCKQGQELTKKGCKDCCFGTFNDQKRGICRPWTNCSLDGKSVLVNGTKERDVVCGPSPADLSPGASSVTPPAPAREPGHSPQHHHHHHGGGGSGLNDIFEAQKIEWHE

B1: H183/L072 VL F55H (antibody, name in Kabat numbering, V domains shown)
VH: QVQLVESGGGLVQPGRSLRLSCAASGFTFSNAWMHWVRQAPGKGLEWVAQIKDKGNAYAAYYAPSVKGRFTISRDDSKNSIYLQMNSLKTEDTAVYYCHYVHYASASTVLPAFGVDAWGQGTTVTVSS
VL: DIVMTQSPLSLPVTPGEPASISCQASQELVHMNRNTYLHWYQQKPGQAPRLLIYKVSNRHPGVPDRFSGSGSGTDFTLKISRVEAEDVGVYYCAQGTSVPFTFGQGTKLEIK
notes: Dual-Ig
fold change of affinity: 0 fold

B3: H183/L072 VL F55N (antibody, name in Kabat numbering, V domains shown)
VH: B1 VH
VL: B1 VL with H60N
notes: Dual-Ig
fold change of affinity: 0 fold

B5: H183/L072 VL F55I (antibody, name in Kabat numbering, V domains shown)
VH: B1 VH
VL: B1 VL with H60I
notes: Dual-Ig
fold change of affinity: 0 fold

B9: H183/L072 VL F55Q (antibody, name in Kabat numbering, V domains shown)
VH: B1 VH
VL: B1 VL with H60Q
notes: Dual-Ig
fold change of affinity: 0 fold

B11: H183/L072 VL F55M (antibody, name in Kabat numbering, V domains shown)
VH: B1 VH
VL: B1 VL with H60M
notes: Dual-Ig
fold change of affinity: 0.2 fold

B14: H183/L072 VL F55L (antibody, name in Kabat numbering, V domains shown)
VH: B1 VH
VL: B1 VL with H60L
notes: Dual-Ig
fold change of affinity: 0.2 fold

B15: H183/L072 VL F55K (antibody, name in Kabat numbering, V domains shown)
VH: B1 VH
VL: B1 VL with H60K
notes: Dual-Ig
fold change of affinity: 0 fold

B18: H183/L072 VL F55P (antibody, name in Kabat numbering, V domains shown)
VH: B1 VH
VL: B1 VL with H60P
notes: Dual-Ig
fold change of affinity: 0 fold

The remaining lines, values ahead:

fold change of affinity: 0 fold
B2: H183/L072 VL F55T (antibody, name in Kabat numbering, V domains shown)
VH: B1 VH
VL: B1 VL with H60T
notes: Dual-Ig

fold change of affinity: 0 fold
B4: H183/L072 VL F96A (antibody, name in Kabat numbering, V domains shown)
VH: B1 VH
VL: B1 VL with H60F, F101A
notes: Dual-Ig

fold change of affinity: 0 fold
B6: H183/L072 VL F96E (antibody, name in Kabat numbering, V domains shown)
VH: B1 VH
VL: B1 VL with H60F, F101E
notes: Dual-Ig

fold change of affinity: 0 fold
B7: H183/L072 VL F96H (antibody, name in Kabat numbering, V domains shown)
VH: B1 VH
VL: B1 VL with H60F, F101H
notes: Dual-Ig

fold change of affinity: 0 fold
B8: H183/L072 VL F96G (antibody, name in Kabat numbering, V domains shown)
VH: B1 VH
VL: B1 VL with H60F, F101G
notes: Dual-Ig

fold change of affinity: 0 fold
B10: H183/L072 VL F55R (antibody, name in Kabat numbering, V domains shown)
VH: B1 VH
VL: B1 VL with H60R
notes: Dual-Ig

fold change of affinity: 0.2 fold
B12: H183/L072 VL F55W (antibody, name in Kabat numbering, V domains shown)
VH: B1 VH
VL: B1 VL with H60W
notes: Dual-Ig

fold change of affinity: 0 fold
B13: H183/L072 VL F55V (antibody, name in Kabat numbering, V domains shown)
VH: B1 VH
VL: B1 VL with H60V
notes: Dual-Ig

fold change of affinity: 0 fold
B16: H183/L072 VL F55S (antibody, name in Kabat numbering, V domains shown)
VH: B1 VH
VL: B1 VL with H60S
notes: Dual-Ig

fold change of affinity: 0 fold
B17: H183/L072 VL F96D (antibody, name in Kabat numbering, V domains shown)
VH: B1 VH
VL: B1 VL with H60F, F101D
notes: Dual-Ig
